# According to the RNAGym collection of RNA variant scans (doi:10.1073/pnas.2313332121):
# B1: TPR t1 (parent)
# chain: GACCAAUCUGCCCUCAGAGCUCGAGAACAUCUUCGGAUGCAGAGGAGGCAGGCUUCGGUGGCGCGAUAGCGCCAACGUCCUCAACCUCCAAUGCAUCCCACCACAUGAUGAUGCCUGAAGAGCCUUGGUUUUUUG
# Variants of: B1
# Experiment: polymerase ribozyme fitness, log enrichment relative to wild type (log ratio); higher = more active; in vitro selection for triplet polymerase activity
# In short: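 Frozen incubation at −7 °C formed the core of a single, triplicate in vitro selection round applied to PCR-built, transcribed mutant libraries of each subunit of a heterodimeric triplet polymerase ribozyme. Extended constructs were gel-excised, captured with streptavidin beads and amplified by RT-PCR, and input and output libraries were Illumina-sequenced with a filter of ≥10 input reads and ≥1 read per output. Fitness is the logarithm of genotype enrichment relative to wild-type enrichment, with inverse-variance-weighted replicate averaging, and the logarithm is base 2.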
row,Variant,polymerase ribozyme fitness (log ratio)
1,GACCAAUCUGCCCUCAGAGCUCGAGAACAUCUUCGGAUGCAGAGGAGGCAGGCUUCGGUGUCGCGAUAGCGCCAACGUCCUCAACCUCCAAUGCAUCCCACCACAUGAUGAUGCCUGAAGAGCCUUGGUUUAUUG,0.196
2,GACCAAUCUGCCCUCAGAGCUCGAGAACAUCUUCGGAUGCAGAGGAGGCAGGCUUCGGUGGAGCGAUAGCGCCAACGUUCUAAACCUCCAAUGCAUCCCACCACAUGAUGCUGCCUGAAGAGCCUUGGUUUUUUG,-0.967
3,GACCAAUCUGCCCUCAGAGCUCGAGAACAUCUUCGGAUGCAGAGGAGGCAGGCUUCGGUGGAGCGAUAGCGCCAACGUCCUCUACCUCCAAAGCAUCCCACCACAUGAUGAUGCCCGAAGAGCCUUGGUUUUUUG,-5.36
4,GACCAAUCUGCCCUCAGAGCUCGAGAACAUCUUCGGAUGCAGAGGAGGCAGGCUUCGGUGGAGCGUUAGCGCUAACGUCCUCAACCUCCAAUGCCUCCCACCACAUGAUGAUGCCUGAAGAGUCUUGGUUUUUUG,-5.94
5,GACCAAUCUGCCCUCAGAGCUCGAGAACAUCUUCGGAUGCAGAGGAGGCAGGCUUCGGUGUCGCGAUAGCGCCAACGUCCUCAACCUCCAAUGCAUCCCACCACAUGAUGAUGCCCGAAGAGCCUUGGUGUUUUG,-0.407
6,GACCAAUCUGCCCUCAGAGCUCGAGAACAUCUUCGGAUGCAGAGGAGGCAGGCUUCGGUGGAGCGAUAGCGCCAGCGUCCUCAACCUCCAAUGCAUCCCACCACAUGAUGAUGCCUGAAGAGCCUUGGUUUUUUG,-1.22
7,GACCAAUCUGCCCUCAGAGCUCGAGAACAUCUUCGGAUGCAGAGGAGGCAGGCUUCGGUGUCGCGAUAGCGCCAACGUCCUCAACCUCCAAUGCAUCCCACCACAUGAUGAUGCCUGAAGAGCCUUGGGUUUAUG,-2.01
8,GACCAAUCUGCCCUCAGAGCUCGAGAACAUCUUCGGAUGCAGAGGAGGCAGGCUUCGGUGGAGUGAUAGCGCCAACGUCCUCAACCUCCAAUGCAUCCCACCACAUGAUGAUGACUGAAGUGGCUUGGUUUUUUG,-4.48
9,GACCAAUCUGCCCUCAGAGCUCGAGAACAUCUUCGGAUGCAGAGGAGGCAGGCUUCGGUGGAGCGAUAGCGCCAACGUCCUCAACAUCCAAUGCAUCUCACCACAUGAUGAUGCCUGAAGAGCCUUGGUUUUUUG,-3.12
10,GACCAAUCUGCCCUCAGAGCUCGAGAACAUCUUCGGAUGCAGAGGAGGCAGGCUUCGGUGGAGCGAUAGCGCCAACGUCCUCAAUCUCCAAUGCAUCCCACCACAUGAUGAUGCCUGAAGGGCCUUGGUUUUUUG,0.356
11,GACCAAUCUGCCCUCAGAGCUCGAGAACAUCUUCGGAUGCAGAGGAGGCAGGCUUCGGUGGAGCGAUAGCGCAAACGUCCUCAACCUCCAAUGCAUCCCACCACAUGAUGAUGCCUGAAGAGCCUUGGUUUUUUG,-2.4
12,GACCAAUCUGCCCUCAGAGCUCGAGAACAUCUUCGGAUGCAGAGGAGGCAGGCUUCGGUGUCGCGAUAGCGCCAACGUCCUCAACCUCCAAUGCAUCCCACCACAUGAUGAUGCCUGAAGAGCCUUGGUCUUUUG,0.445
13,GACCAAUCUGCCCUCAGAGCUCGAGAACAUCUUCGGAUGCAGAGGAGGCAGGCUUCGGUGGAGCGAUAGCGCCAACGUCCUCAACCUCCAAUGCAUCCCACCAAAUGAUGAUACCUGAAGAGCCUUGGUUUUUUG,-4.4
14,GACCAAUCUGCCCUCAGAGCUCGAGAACAUCUUCGGAUGCAGAGGAGGCAGGCUUCGGUGGAGCGAUAGCGCCAACGUCCUCAAACUCCAAUGCAUCCCACCACAUGAUGAUGCCUGAAGAGCCUUGGUUUUUUG,-2.47
15,GACCAAUCUGCCCUCAGAGCUCGAGAACAUCUUCGGAUGCAGAGGAGGCAGGCUUCGGUGGAGCGAUAGCGCCAACGUCCUCAAUCUCCAAUGCAUCCCACCACAUGAUGAUGCCUGAAGAGCCUUGGUUUUUUG,-0.762
16,GACCAAUCUGCCCUCAGAGCUCGAGAACAUCUUCGGAUGCAGAGGAGGCAGGCUUCGGUGGAGCGAUAGCGCCAACGUCCUCAGCCUCCAAUGCAUCCCACCACAUGAUGAUGCCUAAAGAGCCUUGGUUUUUUG,-5.26
17,GACCAAUCUGCCCUCAGAGCUCGAGAACAUCUUCGGAUGCAGAGGAGGCAGGCUUCGGUGGAGCGAUAGCGUCAACGUCCUCAACCUCCAAUGCAUCCCACCACAUGAUGAUGCCUAAAGAGCCUUGGACUUUUG,-2.9
18,GACCAAUCUGCCCUCAGAGCUCGAGAACAUCUUCGGAUGCAGAGGAGGCAGGCUUCGGUGGAGCGAUAGCGCCAACGUCCUCAACCUCCAAUGCAUCCCACCACAUGAUGAUGCCUGAAGAGCUUUGGUUUUUUG,1.51
19,GACCAAUCUGCCCUCAGAGCUCGAGAACAUCUUCGGAUGCAGAGGAGGCAGGCUUCGGUGGAGCGAUAGCGCCAACGUCCUCAACCUCCAAUGCAUCCCACCACAUGAUGAUGCCUGAAGAGCAUUGGUUUUUUG,1.01
20,GACCAAUCUGCCCUCAGAGCUCGAGAACAUCUUCGGAUGCAGAGGAGGCAGGCUUCGGUGGAGCGAUAGCGCCAGCGUCCUCAACCUCCAAUACAUCCCACCACAUGAUGAUGCCUGAAGAGCCUUGGUUUUUUG,-2.34
21,GACCAAUCUGCCCUCAGAGCUCGAGAACAUCUUCGGAUGCAGAGGAGGCAGGCUUCGGUGGAGCGAUAGCGCCUACGUCCCCAACCUCCAAUGCAUCCCACCACAUGAUGAUGCCUGAAGAGCCUUGGUUUUUUG,-5.14

row,Variant,polymerase ribozyme fitness (log ratio)
1,GACCAAUCUGCCCUCAGAGCUCGAGAACAUCUUCGGAUGCAGAGGAGGCAGGCUUCGGUGGAGCGAUAGCGCCAACGUCCUCAACCUCCAAUGCAUCCCACCACCUGAUGAUGCCUGAAGAGCCUUGGUUUUUUG,-3.71
2,GACCAAUCUGCCCUCAGAGCUCGAGAACAUCUUCGGAUGCAGAGGAGGCAGGCUUCGGUGGAGCGAUAGCGCCAACGUCCUCAACCUCCAAUGCAUCCCACCACUUGAUGAUGCCUGAAGAGCCUUGGUUUUUUG,-3.07
3,GACCAAUCUGCCCUCAGAGCUCGAGAACAUCUUCGGAUGCAGAGGAGGCAGGCUUCGGUGGAGCGAUAGUGCCAACGUCCUCAACAUCCAAUGCAUCCCACCACAUGAUGAUGCCUGAAGAGCCUUGGUUUUUUG,-4.26
4,GACCAAUCUGCCCUCAGAGCUCGAGAACAUCUUCGGAUGCAGAGGAGGCAGGCUUCGGUGGAGCGAUAGCGGCAACGUCCUCAACCUCCAAUGCAUCCCACCACAUGAUGAUGCCUGAAUAGCCUUGGGUUUUUG,-3.88
5,GACCAAUCUGCCCUCAGAGCUCGAGAACAUCUUCGGAUGCAGAGGAGGCAGGCUUCGGUGGAGCGAUAGCGCCAACGUCCUCAACCUCCAAUGCAUCCCACCACAUGAUGAUGCCUGACGAGUCUUGGUUUUUUG,-2.98
6,GACCAAUCUGCCCUCAGAGCUCGAGAACAUCUUCGGAUGCAGAGGAGGCAGGCUUCGGUGUCGCGAUAGCGCCAACGUCCUCAACCUCCAAUGCAUCCCACCACAUGAUGAUGCCUGAAGAGCCUAGGUUUUUUG,-1.86
7,GACCAAUCUGCCCUCAGAGCUCGAGAACAUCUUCGGAUGCAGAGGAGGCAGGCUUCGGUGUCGCGAUAGCGCCAACGUCCUCAACCUCCAAUGCAUCCCACCACAUGAUGAUGCCCGAAGAGCCUUGGUUUUUUG,0.227
8,GACCAAUCUGCCCUCAGAGCUCGAGAACAUCUUCGGAUGCAGAGGAGGCAGGCUUCGGUGGAGCGAUAGCGCCAACGUACUCAACCUCCAAUGCAUCCCACCACAUGAUGAUGCAUGAAGAGCCUUAGUUUUUUG,-3.94
9,GACCAAUCUGCCCUCAGAGCUCGAGAACAUCUUCGGAUGCAGAGGAGGCAGGCUUCGGUGGAGCGAUAGCGCCAACGUCCUCAACCUCCAAUGCAUCCCACCACAUGAUGAUGCAUGAAGAGCCUUGGUUUUUUG,-1.58
10,GACCAAUCUGCCCUCAGAGCUCGAGAACAUCUUCGGAUGCAGAGGAGGCAGGCUUCGGUGGAGCGAUAGCGCCAACGUUCUCAACCUCGAAUGCAUCCCACCACAUGAUGAUGCCUGAAGAGCCUUGGUAUUUUG,-3.65
11,GACCAAUCUGCCCUCAGAGCUCGAGAACAUCUUCGGAUGCAGAGGAGGCAGGCUUCGGUGGAGCGAUAGCGCCAACGUCCUCAACCUCCAAUGCAUCCCACCACAUGAUGAUGUCUGAAGAGCCUUGGUUUUUUG,-2.2
12,GACCAAUCUGCCCUCAGAGCUCGAGAACAUCUUCGGAUGCAGAGGAGGCAGGCUUCGGUGGAGCGAUAGCGCCGACGUCCUCAACCUCCAAUGCAUCCCACCACAUGAUGAUGCCUGAAGAGCCUUGGUUUUUUG,-5.22
13,GACCAAUCUGCCCUCAGAGCUCGAGAACAUCUUCGGAUGCAGAGGAGGCAGGCUUCGGUGGAGCGAUAGCGCCAACGUCCUCAACCUCCAAUGAAUCCCACCACAUGAUGAUGCCUGAAGAGCCUUGGUUUUUUG,-2.2
14,GACCAAUCUGCCCUCAGAGCUCGAGAACAUCUUCGGAUGCAGAGGAGGCAGGCUUCGGUGGAGCGAUAGCGCCAACGUCCUCAACCUCCAAUGCAUCCCACCACAUGAUGAUGCCUGAAGCGCCUUGGUUUUUUG,0.464
15,GACCAAUCUGCCCUCAGAGCUCGAGAACAUCUUCGGAUGCAGAGGAGGCAGGCUUCGGUGGAGCGAUAGCGCCAACGUCCUCAACCUCCAAUGCAUCCCACCACAUGAUGAUGCCUGUAGAGCCUUGGUUUUUUG,-1.56
16,GACCAAUCUGCCCUCAGAGCUCGAGAACAUCUUCGGAUGCAGAGGAGGCAGGCUUCGGUGGAGCGAUAGCGCCAACGUCCUCAACCUCCAAUGCAUCCCACCACAUGAUGAUGCCUGAAGAGUCUUGGUUUUUUG,0.181
17,GACCAAUCUGCCCUCAGAGCUCGAGAACAUCUUCGGAUGCAGAGGAGGCAGGCUUCGGUGGAGCGAUAGCGCCAACGUCCUCAACCUCCAAUGCAUCCCACCACAUGAUGAUGCCUGAAGAGACUUGGUUUUUUG,-0.607
18,GACCAAUCUGCCCUCAGAGCUCGAGAACAUCUUCGGAUGCAGAGGAGGCAGGCUUCGGUGGAGCGAUAGCGCCAACGUCCUCAACCUCCAAUGCAUCCCACCACAUGAUGAUGCCUGAAGAGGCUUGGUUUUUUG,0.748
19,GACCAAUCUGCCCUCAGAGCUCGAGAACAUCUUCGGAUGCAGAGGAGGCAGGCUUCGGUGUCGCGAUAGCGCCAACGUCCUCAACCUCCAAUGCAUCCCACCACAUGAUGAUGCCUGAAGAGCCUUGGUUAUUUG,-0.736
20,GACCAAUCUGCCCUCAGAGCUCGAGAACAUCUUCGGAUGCAGAGGAGGCAGGCUUCGGUGGAGCGAUAGCGCCAACGUCCUCAACCUACAAUGCAUCCCACCACAUGAUGAUGCCUGAAGAGCCUUGGUUUUUUG,-2.76
21,GACCAAUCUGCCCUCAGAGCUCGAGAACAUCUUCGGAUGCAGAGGAGGCAGGCUUCGGUGGAGCGAUAGCGCCAACGUCCUCAACCUUCAAUGCAUCCCACCACAUGAUGAUGCCUGAAGAGCCUUGGUUUUUUG,-2.23
